Substrate in data set [1]: CCCCC/C=C\C/C=C\C/C=C\C/C=C\CCCC(=O)O
In words: purified protein. Conditions: heme.

Substrate in data set [2]: CCCCC/C=C\C/C=C\C/C=C\C/C=C\CCCC(=O)Nc1cccc(O)c1
In words: purified protein. Conditions: heme.

B1: prostaglandin endoperoxide synthase-2 (PGHS-2) (Mus musculus) (protein)
chain: ANPCCSNPCQNRGECMSTGFDQYKCDCTRTGFYGENCTTPEFLTRIKLLLKPTPNTVHYILTHFKGVWNIVNNIPFLRSLIMKYVLTSRSYLIDSPPTYNVHYGYKSWEAFSNLSYYTRALPPVADDCPTPMGVKGNKELPDSKEVLEKVLLRREFIPDPQGSNMMFAFFAQHFTHQFFKTDHKRGPGFTRGLGHGVDLNHIYGETLDRQHKLRLFKDGKLKYQVIGGEVYPPTVKDTQVEMIYPPHIPENLQFAVGQEVFGLVPGLMMYATIWLREHNRVCDILKQEHPEWGDEQLFQTSRLILIGETIKIVIEDYVQHLSGYHFKLKFDPELLFNQQFQYQNRIASEFNTLYHWHPLLPDTFNIEDQEYSFKQFLYNNSILLEHGLTQFVESFTRQIAGRVAGGRNVPIAVQAVAKASIDQSREMKYQSLNEYRKRFSLKPYTSFEELTGEKEMAAELKALYSDIDVMELYPALLVEKPRPDAIFGETMVELGAPFSLKGLMGNPICSPQYWKPSTFGGEVGFKIINTASIQSLICNNVKGCPFTSFNVQDPQPTKTATINASASHSRLDDINPTVLIKRRSTEL
For B1, in the data set “purified protein [1]”, the Km (commonly the concentration of substrate that gives half-maximal velocity) was 2.5 ± 0.4 µM; the kcat (in general, the maximal rate divided by the concentration of active sites) worked out at 47 s⁻¹; the kcat/Km (commonly the turnover number divided by the Michaelis constant) came to 1.9e+07 M⁻¹ s⁻¹.

B2: prostaglandin endoperoxide synthase-1 (PGHS-1) (Ovis aries) (protein)
chain: ADPGAPAPVNPCCYYPCQHQGICVRFGLDRYQCDCTRTGYSGPNCTIPEIWTWLRTTLRPSPSFIHFLLTHGRWLWDFVNATFIRDTLMRLVLTVRSNLIPSPPTYNIAHDYISWESFSNVSYYTRILPSVPRDCPTPMDTKGKKQLPDAEFLSRRFLLRRKFIPDPQSTNLMFAFFAQHFTHQFFKTSGKMGPGFTKALGHGVDLGHIYGDNLERQYQLRLFKDGKLKYQMLNGEVYPPSVEEAPVLMHYPRGIPPQSQMAVGQEVFGLLPGLMLYATIWLREHNRVCDLLKAEHPTWGDEQLFQTARLILIGETIKIVIEEYVQQLSGYFLQLKFDPELLFGAQFQYRNRIAMEFNQLYHWHPLMPDSFRVGPQDYSYEQFLFNTSMLVDYGVEALVDAFSRQPAGRIGGGRNIDHHILHVAVDVIKESRVLRLQPFNEYRKRFGMKPYTSFQELTGEKEMAAELEELYGDIDALEFYPGLLLEKCHPNSIFGESMIEMGAPFSLKGLLGNPICSPEYWKASTFGGEVGFNLVKTATLKKLVCLNTKTCPYVSFHVPDPRQEDRPGVERPPTEL
For the protein B2, in the data set “purified protein [2]”, the Km turned out to be 15 ± 1 µM, the kcat stood at 22 ± 1 s⁻¹ and the catalytic efficiency (kcat/Km) came to 1.5e+06 ± 1e+06 M⁻¹ s⁻¹. Also, the Km in the data set “purified protein [1]” is 3.4 ± 0.6 µM.

The values are drawn from paper PMC2797370.
